For series [1], the system named is 30S ribosomal subunit (mRNA-programmed, activated; ribonucleoprotein). The series is described as follows: FP. Conditions: mnm5s2U34 and other native modifications; nitrocellulose filter binding (method is filter); poly(A)-programmed; CMN buffer 20 mM MgCl2, 100 mM NH4Cl, pH 7.2, 37 C then ice.
For series [2] the test system is unchanged. The series can be described thus: filter. To be noted: CMN buffer 20 mM MgCl2, pH 7.2.

As a reminder, the Kd is the constant that tells how readily two partners part at equilibrium.

For the substance “E. coli tRNALys(SUU), native fully modified”, the Kd in series [1] was 70 nM.

For “UCAGACUUUUAAUCUGA [ASLLys3(SUU), s2U34 anticodon stem-loop]”, in series [2] (s2U at tRNA position 34, poly(A)-programmed, also bound poly(AG)-programmed 30S), the Kd is 176 nM.

On to yeast tRNAPhe(GmAA), native, for which the Kd in series [2] (Gm34 and other native modifications, poly(U)-programmed) turned out to be 103 nM.

“yeast ASLPhe(GAA), unmodified anticodon stem-loop” displayed a Kd in series [2] (poly(U)-programmed) of 136 nM. In other words, the sub-micromolar range.

The values are drawn from patent US6461815.
